Results on 1 molecule are retold here after paper doi:10.1101/2020.02.11.944462 (bioRxiv, 2020).

For the assay, the target named is T1, human angiotensin-converting enzyme 2 (ACE2), residues 1-615, untagged (human, UniProt Q9BYF1 18-615).
T1 construct: also called human ACE2; not shown: TwinStrepTag, C-terminal, cleaved; 8XHisTag, C-terminal, cleaved
The assay can be described thus: SPR; […], Biacore X100; 10 mM HEPES pH 8.0, 150 mM NaCl, 0.05% Tween 20; […]; 1:1 binding model. The note with it: both partners purified.

T1 sequence (Q9BYF1 18-615): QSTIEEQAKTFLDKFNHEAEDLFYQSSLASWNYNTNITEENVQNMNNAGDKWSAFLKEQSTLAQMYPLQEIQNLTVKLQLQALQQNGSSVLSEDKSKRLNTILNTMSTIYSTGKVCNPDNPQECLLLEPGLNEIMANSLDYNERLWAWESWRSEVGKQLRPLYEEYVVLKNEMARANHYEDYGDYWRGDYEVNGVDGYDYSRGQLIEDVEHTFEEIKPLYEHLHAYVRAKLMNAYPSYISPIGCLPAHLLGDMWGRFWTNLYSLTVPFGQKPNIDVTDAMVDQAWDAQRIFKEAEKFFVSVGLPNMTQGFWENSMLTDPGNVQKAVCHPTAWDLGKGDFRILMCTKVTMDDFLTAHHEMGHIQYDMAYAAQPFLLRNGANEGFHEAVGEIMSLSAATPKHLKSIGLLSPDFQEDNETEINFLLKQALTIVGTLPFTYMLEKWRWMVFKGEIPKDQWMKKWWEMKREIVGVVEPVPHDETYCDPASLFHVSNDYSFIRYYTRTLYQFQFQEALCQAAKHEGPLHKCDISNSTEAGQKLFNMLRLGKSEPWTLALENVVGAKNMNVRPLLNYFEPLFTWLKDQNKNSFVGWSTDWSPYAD

B1: SARS-CoV RBD-SD1 (S residues 306-577, Urbani strain), His-tagged (domain or fragment)
chain: not shown
B1: the binding result was “binds”.
